From patent US20080131510 come the findings set out here.

Data set [1] addresses T1, Lys*-Gly-Leu-Cys (SEQ ID NO:33).
T1 chain: KGLC
In words: peptide cleavage kinetics by HPLC, 10 nM activated MMP; the filing calls Km 'affinity or binding strength'.

For data set [2], the target named is T2, Lys*-Pro-Ala-Gly-Leu-Leu-Gly-Cys (SEQ ID NO:2).
T2 chain: KPAGLLGC
The description is as above.

The target in data set [3] is T3, Lys*-Ala-Gly-Leu-Leu-Cys (SEQ ID NO:32).
T3 chain: KAGLLC
Described as above.

For data set [4], the target named is T1, Lys*-Gly-Leu-Cys (SEQ ID NO:33).
Data set [5] addresses T4, Lys*-Pro-Ala-Gly-Leu-Leu-Gly-Cys (SEQ ID NO:2), pendant in PEG(8000)DA hydrogel and complexed with Pt (not fully specified).
T4 chain: KPAGLLGC

The target of data set [6] is T2, Lys*-Pro-Ala-Gly-Leu-Leu-Gly-Cys (SEQ …).
The target in data set [7] is T3, Lys*-Ala-Gly-Leu-Leu-Cys (SEQ ID NO:32).

B1: matrix metalloprotease-2 (MMP-2), activated (protein)
chain: YNFFPRKPKWDKNQITYRIIGYTPDLDPETVDDAFARAFQVWSDVTPLRFSRIHDGEADIMINFGRWEHGDGYPFDGKDGLLAHAFAPGTGVGGDSHFDDDELWTLGEGQVVRVKYGNADGEYCKFPFLFNGKEYNSCTDTGRSDGFLWCSTTYNFEKDGKYGFCPHEALFTMGGNAEGQPCKFPFRFQGTSYDSCTTEGRTDGYRWCGTTEDYDRDKKYGFCPETAMSTVGGNSEGAPCVFPFTFLGNKYESCTSAGRSDGKMWCATTANYDDDRKWGFCPDQGYSLFLVAAHEFGHAMGLEHSQDPGALMAPIYTYTKNFRLSQDDIKGIQELYGASPDIDLGTGPTPTLGPVTPEICKQDIVFDGIAQIRGEIFFFKDRFIWRTVTPRDKPMGPLLVATFWPELPEKIDAVYEAPQEEKAVFFAGNEYWIYSASTLERGYPKPLTSLGLPPDVQRVDAAFNWSKNKKTYIFAGDKFWRYNEVKKKMDPGFPKLIADAWNAIPDNLDAVVDLQGGGHSYFFKGAYYLKLENQSLKSVKFGSIKSDWLGC
As a reminder, the Km is the substrate concentration at which the rate is half of its maximum. As usually defined, the Vmax is the top rate of the reaction or transport when substrate is in excess. Broadly, the kcat is the number of substrate molecules converted per active site and unit of time at saturation. Turning to B1, the values for the Km in data set [1], in data set [2] and in data set [3] were 81 µM, 1000 µM and 1400 µM, respectively. In addition, the Kcat/Km is 439 M⁻¹ s⁻¹ in data set [4], 10700 M⁻¹ s⁻¹ in data set [6] and 171 M⁻¹ s⁻¹ in data set [7]. Also, the Vmax turned out to be 8.8e-10 M/s in data set [4], 2.7e-07 M/s in data set [6] and 6.02e-09 M/s in data set [7]. Also, the values for the kcat in data set [4], in data set [6] and in data set [7] were 0.035 s⁻¹, 10.7 s⁻¹ and 0.24 s⁻¹, respectively. Further, the “release of cleaved fragment from the PEG(8000)DA hydrogels” value in data set [5] was “the addition of MMP-2 and MMP-9 showed a significantly higher release of cleaved fragment from the PEG(8000)DA hydrogels compared to the control”.
